In PMC10243088:

Assays:
[1] = molecular target: ferroportin (human (endogenous in HEK 293 and iPSC-derived ECs)) (UniProt Q9NP59)
[2] = molecular target: ferroportin (human (endogenous in HEK 293 and iPSC-derived ECs)) (UniProt Q9NP59); remark: listed apart in the source
[3] = molecular target: ferroportin (human (endogenous in HEK 293 and iPSC-derived ECs)) (UniProt Q9NP59); remark: listed apart in the source

Sequence of UniProt Q9NP59 (Q9NP59 whole entry): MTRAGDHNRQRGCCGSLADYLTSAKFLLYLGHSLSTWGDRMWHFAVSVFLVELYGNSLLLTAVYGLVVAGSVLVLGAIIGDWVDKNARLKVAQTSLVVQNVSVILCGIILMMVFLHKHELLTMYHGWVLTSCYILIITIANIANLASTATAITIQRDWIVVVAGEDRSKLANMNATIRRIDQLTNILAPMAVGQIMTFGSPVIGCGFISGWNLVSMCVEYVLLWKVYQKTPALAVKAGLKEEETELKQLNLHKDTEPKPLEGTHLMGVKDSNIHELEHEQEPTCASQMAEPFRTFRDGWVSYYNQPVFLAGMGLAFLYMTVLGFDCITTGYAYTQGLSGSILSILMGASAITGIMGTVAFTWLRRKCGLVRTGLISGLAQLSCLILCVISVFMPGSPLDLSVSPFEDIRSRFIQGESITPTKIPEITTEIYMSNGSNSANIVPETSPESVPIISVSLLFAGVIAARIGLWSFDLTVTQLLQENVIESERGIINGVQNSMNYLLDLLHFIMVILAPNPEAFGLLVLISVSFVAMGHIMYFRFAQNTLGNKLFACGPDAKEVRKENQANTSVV

| Fpn protein level in iPSC-derived ECs with 0.25 μM holo-Tf over time, intervals of 1 h up to 5 h (immunoblot) [1] | Fpn protein level in iPSC-derived ECs after 8 h with increasing concentrations of holo-Tf in the basal chamber (immunoblot), from 0.1 μM [2] | membrane Fpn in HEK 293 cells with 0.25 μM holo-Tf, 5-60 min (membrane protein isolation, immunoblot), compared to control [3] | membrane Fpn in HEK 293 cells with 500 nM hepcidin, 5-60 min (membrane protein isolation, immunoblot), compared to holo-Tf treatment [3] | Substance |
| --- | --- | --- | --- | --- |
| 50% | 50% | 20% |  | holo-transferrin (iron bound transferrin) (from UniProt P02787 20-698) (natural protein) |
|  |  |  | 70% | hepcidin (peptide) |
